Laboratory results published in the supplement of paper PMC12764529.
± gives the half width of the 95% confidence interval.

How the values were obtained:
[1] = folding stability dG unfold (combined trypsin and chymotrypsin); higher = more stable
How it was run: (§1)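 Designed mini-proteins (under 80 residues, no cysteine) in a PA-tagged cDNA display construct were digested with trypsin and chymotrypsin. Each protease was used at 11 concentrations (threefold dilutions) plus a no-protease condition, followed by sequencing. K50 was inferred by Bayesian fitting of sequencing counts, and unfolding free energy was derived against a sequence-predicted unfolded-state K50 and a shared folded-state K50, per protease or combined. Only designs with AlphaFold2 dimer inter-PAE above 15 were kept.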

[2] = folding stability dG unfold from trypsin proteolysis; higher = more stable
How it was run: as §1

[3] = folding stability dG unfold from chymotrypsin proteolysis; higher = more stable
How it was run: as §1

Sequence | folding stability dG unfold [1] | folding stability dG unfold [2] | folding stability dG unfold [3]
SAGGSAGGSAGGMPDGAEFELEFEFELPDGYRVRLRIRARIGPDGVVEFEVEVEVYEVPDSAGGSAGGSAGG [r7_125_TrMRF] | 5.01 ± 0.13 kcal/mol | 4.58 ± 0.15 kcal/mol | 5.13 ± 0.12 kcal/mol
SAGGKILVPLEVLKEIEEAGLVDEVVENPDGPASLTVTSSKPAKLFGKPVIGFVRRGPDGKPVVEIIPSAGG [r13_163_TrMRF] | 0.000122 ± 0.099 kcal/mol | -0.215 ± 0.091 kcal/mol | 0.0505 ± 0.13 kcal/mol
SAGGSAGGSAGGKAKIEMESETIPFKNDDGEKYYIQIMRFEVEVGGKKVTATAISIMPLDSAGGSAGGSAGG [r7_248_TrROS] | 2.98 ± 0.4 kcal/mol | 2.22 ± 0.22 kcal/mol | 3.53 ± 0.16 kcal/mol
SAGGMKIEIVEVTPTRIRIRLENGEVLTLEEIRKLLEEEGLPEPMTVDQIAELLRKRGLKITEIEIVPSAGG [r13_610_TrROS_Hall] | 3.18 ± 0.083 kcal/mol | 2.97 ± 0.052 kcal/mol | 3.274 ± 0.025 kcal/mol
SAGGKVEVETKAYFIPETGEVVLLTTVRVETDEEPSEEERENLPEGATRTETFTFVFVFPAKPGSLLSAGGS [r8_274_TrMRF] | 3.19 ± 0.092 kcal/mol | 2.46 ± 0.064 kcal/mol | 3.52 ± 0.044 kcal/mol
SAGGSAGGSAGGKPKTIRIKVYNEETGEVVTLEFPEGMSLEEVKKLLEALPNLKVVEIEPSAGGSAGGSAGG [r7_624_TrROS_Hall] | 4.45 ± 0.24 kcal/mol | 4.79 ± 0.41 kcal/mol | 3.62 ± 0.11 kcal/mol
SAGGSAGTITIMFPIPPGKEVKMKFLFYIPDGYIFNVDITQTGPGYITITIPIYRLPENAKDPDLISAGGSA [r15_909_TrROS] | 4.43 ± 0.26 kcal/mol | 3.2 ± 0.3 kcal/mol | 4.78 ± 0.18 kcal/mol
SAGGSVVPASEPVTIPDTATGTTLTLPTPAGATITPDPATNTTTVTFTDGDRASSVTFVNGAATSASTASAG [r5_22_JUSTAS] | -0.162 ± 0.11 kcal/mol | -0.53 ± 0.098 kcal/mol | -0.139 ± 0.21 kcal/mol
SAGGKKKKPERVEVTIVLPPEILEAIKAGKPLTKEEIAKLLGLPPGAEIKIERREDGYLVIKITLPKSAGGS [r16_679_TrROS_Hall] | 2.8 ± 0.069 kcal/mol | 1.61 ± 0.03 kcal/mol | 3.19 ± 0.044 kcal/mol
SAGTPEEVLQRAKELANRFQDRARDNGMDVKVDITQVEPNRIRINIEMRPPNGRRHRMPIEIELPKDDISAG [r5_994_TrROS] | 1.43 ± 0.2 kcal/mol | 1.27 ± 0.079 kcal/mol | 1.65 ± 0.036 kcal/mol
SAGGSAGGSAGKVEITVEKNPETGLYTVRIKTEDGKEIEITVPKNMTLEELKKLAEELLKSAGGSAGGSAGG [r17_161_TrROS_Hall] | 4.42 ± 0.1 kcal/mol | 4.43 ± 0.22 kcal/mol | 4.42 ± 0.11 kcal/mol
SAGGSAGGSAGGDWITFTNPGGYKVTVEVDENGWMRVEVYPNGKPQEVPMPLEELKKNAPSAGGSAGGSAGG [r7_178_TrROS] | 0.423 ± 0.19 kcal/mol | -0.451 ± 0.18 kcal/mol | 0.868 ± 0.17 kcal/mol
SAGGSAGGSAGGKTVVLFVDPKTKKVYILYPDGKIETLSPEELKNKPIIVKPVKLHPKAGSAGGSAGGSAGG [r7_98_TrMRF] | 1.56 ± 0.053 kcal/mol | 0.817 ± 0.024 kcal/mol | 1.86 ± 0.053 kcal/mol
SAGMDPDDPDYMIFINLDIKLEVEPDPDNGKPYVKLEIRITNIMVFDPDNGKMEMEPIEIEMTLPPDDISAG [r5_270_TrROS] | 2.48 ± 0.3 kcal/mol | 1.3 ± 0.083 kcal/mol | 3.09 ± 0.17 kcal/mol
SAGGSAGGSAMKRVTLTFPSTGKTLTFDFTTEEDIEAAIKAALGPEVDPAKVTVTVLPPGAASAGGSAGGSA [r18_350_JUSTAS] | 2.12 ± 0.3 kcal/mol | 1.04 ± 0.054 kcal/mol | 2.62 ± 0.054 kcal/mol
SAGGKVKILKTEVFEEGDYLKIVDFVEVDSLEEIEELVKNGLENVEAEVRLLPDGRLLVVLVAEIPKESAGG [r13_506_TrMRF] | 1.36 ± 0.04 kcal/mol | 1.26 ± 0.031 kcal/mol | 1.4 ± 0.026 kcal/mol
SAGSFKVTLELVLPNGEKLTVENPEDVLAAIKALPSNVTVRVSTPGESETISITGSDGSVFALKIERFKSAG [r5_506_TrMRF] | 1.85 ± 0.1 kcal/mol | 1.68 ± 0.045 kcal/mol | 1.97 ± 0.089 kcal/mol
SAGGSAGGSAGTIPLDNIKEVELEYDPNSGYYEHRIEFPNGRRLVIRFPPSDNVEIQWLDSAGGSAGGSAGG [r17_182_TrROS] | 1.31 ± 0.092 kcal/mol | 1.09 ± 0.025 kcal/mol | 1.33 ± 0.062 kcal/mol
SAGGVYVIKIKFEFGDGLKAELFIMFQSWEQAKEQAENLARNHGLRIDEIEVVPIKPMPPPDPDDQKSAGGS [r8_364_TrROS] | 3.63 ± 0.29 kcal/mol | 2.46 ± 0.14 kcal/mol | 4.13 ± 0.14 kcal/mol
SAGGSAEKPEIGAEIVTYKDKDKPLYIVAVPFFDENGNLVGVLVKEFDNPEEAKEFLEALGFGKIESAGGSA [r15_127_TrMRF] | 1.56 ± 0.12 kcal/mol | 1.55 ± 0.14 kcal/mol | 1.68 ± 0.038 kcal/mol
SAGGSAGGSAGVTVSLPDGRVVTEVTTLPDGTVVITYTKDGKKYTTTLNGSAPAPTPTLASAGGSAGGSAGG [r17_421_JUSTAS] | 2.52 ± 0.086 kcal/mol | 2.42 ± 0.083 kcal/mol | 2.58 ± 0.035 kcal/mol

Sequence | folding stability dG unfold [1] | folding stability dG unfold [2] | folding stability dG unfold [3]
SAEIAELLKELGFEVEVEKVEVKEVEVTVTDENGKKYKVKFVEVKITVKVTNPDGSKRTFSLDELKKLLSAG [r14_578_TrROS_Hall] | 3.45 ± 0.13 kcal/mol | 2.84 ± 0.14 kcal/mol | 3.73 ± 0.11 kcal/mol
SAGGSAGGGPRAVPVGELELVLGDLVVRVRFFRNPESDSVSVRVEVRPLPPISAEELARLGEEGSAGGSAGG [r6_177_TrMRF] | 2.91 ± 0.15 kcal/mol | 1.67 ± 0.062 kcal/mol | 3.52 ± 0.049 kcal/mol
SAGGSAGLAEAILREAASAGIPLENVRIVDVRAFVTPDAVVFRARIEYRLPNSTSLAYADAVVPAPSAGGSA [r15_863_TrMRF] | 1.69 ± 0.073 kcal/mol | 1.42 ± 0.026 kcal/mol | 1.82 ± 0.086 kcal/mol
SAGMSLEELAKELAKKLNIEKVEIKYDKETNKVTIKIYFKKNKKKITITIKKENMTPEEIKKLLEEILKSAG [r5_896_TrROS_Hall] | 4.41 ± 0.19 kcal/mol | 2.9 ± 0.12 kcal/mol | 4.51 ± 0.098 kcal/mol
SAGGSAGGVEPVVVGRVPVVVRDPATGELREAEILRALPDGTLFIRFPNGERAEIRGAPVLSLASAGGSAGG [r6_433_TrMRF] | 1.35 ± 0.086 kcal/mol | 1.07 ± 0.035 kcal/mol | 1.54 ± 0.096 kcal/mol
SAGKVYRIKATAPDGSTAIIEIPENGNAKIKIFYPNGVKEITINLDPNVKIEEILEKFPNFIISSIEEESAG [r5_259_TrMRF] | 4.15 ± 0.22 kcal/mol | 5.01 ± 0.8 kcal/mol | 3.95 ± 0.22 kcal/mol
SAGGSAGGSAGGMVKITFEKDPNSDKGRVTLTDPNATVTLEYDSEEEAEKAIKERFPELESAGGSAGGSAGG [r7_841_JUSTAS] | 0.435 ± 0.088 kcal/mol | -0.364 ± 0.14 kcal/mol | 0.879 ± 0.02 kcal/mol
SAGGNWKIRNPKNGRTIEIDNFNPGNGMFRVKVWNPNGNKEEHPIPGSLEEILEFLQKKGWPVEIERSAGGS [r16_748_TrROS] | 0.626 ± 0.23 kcal/mol | 0.27 ± 0.21 kcal/mol | 0.888 ± 0.2 kcal/mol
SAGGMVEEVKELAKELGFDVEIELTSVYGEKGYVPYKVTFPNGKTYYITFKGSPDEMKKKLRDLLEKSAGGS [r16_153_TrMRF] | 2.82 ± 0.065 kcal/mol | 2.2 ± 0.058 kcal/mol | 2.99 ± 0.034 kcal/mol
SAGGMSEALLADPTVEKVELFPSPGVTVYYRPETGTWLIQPPDGSVEEIKMTPEELEKLIADGLKPASAGGS [r16_745_JUSTAS] | 0.923 ± 0.1 kcal/mol | 0.839 ± 0.11 kcal/mol | 0.588 ± 0.23 kcal/mol
SAGKAELVEVTIEGDKLTALFKIPETGGLVLAEAEFDNGIVKVKAKFYSPSGKPLGEAEFTLPASELKLSAG [r5_308_TrMRF] | 2.48 ± 0.12 kcal/mol | 1.83 ± 0.1 kcal/mol | 2.73 ± 0.067 kcal/mol
SMRIVTEDGQELTIVLPKVPPNMTPEQLRKALEEAGVEVEEITFDEETGEVTVKIRFKDAEKAEEALKKASA [r9_1154_TrROS_Hall] | 1.21 ± 0.14 kcal/mol | 1.51 ± 0.059 kcal/mol | 0.957 ± 0.12 kcal/mol
SAGGSAGGMRYVTVTVTVPSNGKKYTYTKEIAPDEVFNISEAELAAEFGYPDVVVTVSESPIEDSAGGSAGG [r6_722_JUSTAS] | 3.08 ± 0.076 kcal/mol | 2.19 ± 0.074 kcal/mol | 3.39 ± 0.022 kcal/mol
SAGGSAGGSAGGGMRTVTTVSSFTFEKNGGEKFVTTTVVVPLYVPPRVFPPPENIELLLLSAGGSAGGSAGG [r17_454_JUSTAS] | 1.61 ± 0.26 kcal/mol | 2.45 ± 0.33 kcal/mol | 1.36 ± 0.27 kcal/mol
SAEVTSTFDPSTGILTVTVKLEDPETGKPIPAEEVAAEVEKEYPNSTILSIEPDPEGYVTITVKVPPELVSA [r9_87_JUSTAS] | 2.79 ± 0.039 kcal/mol | 1.81 ± 0.075 kcal/mol | 3.16 ± 0.049 kcal/mol
SAGGSAGGSAGPYKVKVTLKNGEVLEFTIPEEFKDLKEVKIDLPEELKENIVKVEIEPLESAGGSAGGSAGG [r17_528_TrMRF] | 2.95 ± 0.059 kcal/mol | 2.56 ± 0.1 kcal/mol | 3.199 ± 0.02 kcal/mol
SSIPLDVPPGERVVRKGVFPDGSELTATYDPTTGRWTVTYYPPDGSVRTSVVPGAALASLPPGFTETRLESA [r9_1110_JUSTAS] | 2.02 ± 0.14 kcal/mol | 1.45 ± 0.043 kcal/mol | 2.28 ± 0.034 kcal/mol
SAGGSADNTDVKTEVVGFRLPGYEGLNFLINIQPKDKPKTIFASEAELPLFEEAGIPVVFTSSLPLSAGGSA [r15_783_TrMRF] | -0.131 ± 0.24 kcal/mol | -0.15 ± 0.29 kcal/mol | -0.0437 ± 0.43 kcal/mol
SMKILIVTKEKAEELAEAIKKKFPNIEIEVFDTPEEAEEAAKKGDIVIVIGSEEEAKELAKKLKVKVIKISA [r9_380_TrROS_Hall] | 2.86 ± 0.45 kcal/mol | 2.19 ± 0.09 kcal/mol | 3.39 ± 0.12 kcal/mol
SAGGMKIEGMTPEEVEALAKALAEAGYEVVSVTVTYDPETDTVTVTVVVRDKKTGEIKKVVTVTLPPSAGGS [r16_750_TrROS_Hall] | 2.99 ± 0.072 kcal/mol | 3.33 ± 0.1 kcal/mol | 2.69 ± 0.069 kcal/mol
SAGGNDDDQKPKMVRVKIKYDNPDGEKYKIDEIWVMPPPFIMIRMPGNGQEIFIPPDQIKEIEIEPVSAGGS [r8_410_TrROS] | 0.826 ± 0.3 kcal/mol | -0.149 ± 0.28 kcal/mol | 1.09 ± 0.081 kcal/mol
